Usually Kd stands for the constant that tells how readily two partners part at equilibrium.

For test [1], the target named is human recombinant FcgammaR receptor CD32aH (human) (UniProt P12318). In words: SPR (ProteOn), Mab captured via anti-human Fc, FcgammaR analyte.
Test [2] concerns the target human recombinant FcgammaR receptor CD32bF (human) (UniProt P31994). Described as above.

CAT-2200 wild-type lambda Mab (antibody), sequence (heavy): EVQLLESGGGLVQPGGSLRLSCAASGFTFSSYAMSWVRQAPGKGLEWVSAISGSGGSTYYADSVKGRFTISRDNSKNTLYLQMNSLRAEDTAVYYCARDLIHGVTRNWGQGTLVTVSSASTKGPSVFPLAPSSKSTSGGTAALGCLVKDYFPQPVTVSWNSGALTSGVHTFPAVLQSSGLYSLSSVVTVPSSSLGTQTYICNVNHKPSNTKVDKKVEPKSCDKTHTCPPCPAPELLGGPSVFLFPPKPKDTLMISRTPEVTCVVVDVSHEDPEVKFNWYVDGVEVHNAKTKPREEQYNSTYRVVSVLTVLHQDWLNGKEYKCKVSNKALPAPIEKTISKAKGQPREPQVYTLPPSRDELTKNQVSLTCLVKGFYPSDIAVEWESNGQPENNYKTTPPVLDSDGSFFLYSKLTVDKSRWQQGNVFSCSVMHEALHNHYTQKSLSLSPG
CAT-2200 wild-type lambda Mab (antibody), sequence (light): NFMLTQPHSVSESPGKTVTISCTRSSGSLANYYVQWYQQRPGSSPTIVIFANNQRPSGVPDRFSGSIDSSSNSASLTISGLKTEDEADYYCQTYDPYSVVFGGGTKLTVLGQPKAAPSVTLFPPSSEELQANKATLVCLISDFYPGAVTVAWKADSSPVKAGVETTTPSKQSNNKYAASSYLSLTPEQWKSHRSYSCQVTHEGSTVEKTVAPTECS
human recombinant FcgammaR receptor CD32aH (human), sequence (P12318 34-217): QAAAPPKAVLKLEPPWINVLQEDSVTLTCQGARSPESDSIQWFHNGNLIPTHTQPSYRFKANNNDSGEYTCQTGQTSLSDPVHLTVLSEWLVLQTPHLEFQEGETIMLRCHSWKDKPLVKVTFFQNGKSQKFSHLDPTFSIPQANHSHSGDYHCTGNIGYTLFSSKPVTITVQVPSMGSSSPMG

Consider “CAT-2200 wild-type lambda Mab (antibody)”, for which the Kd in test [1] turned out to be 700 nM; in test [2], 2900 nM.

The values above are taken from patent US20200308270A1.
